Five molecules from patent US10501734B2, “Compositions and methods of use thereof for making polypeptides with many instances of nonstandard amino acids” (Yale University, priority 2014, dated 2019) can be followed below.

Numbering of substitutions follows the chain as printed. Numbers in names are those of the source.

One series relates to tRNA. Put plainly: Aminoacylation assay (tRNA charging). The class given is biochemical. The settings on record: for Fold change: relative to progenitor pAcFRS. The procedure:
Template plasmid containing tRNA gene was purified with the plasmid maxi kit (Qiagen), and 100 μg of plasmid was digested with BstNI (New England Biolabs). The BstNI digested template DNA was purified by phenol chloroform extraction, followed by ethanol precipitation and resolved in double distilled water. A His-tagged T7 RNA polymerase was purified over column of Ni-NTA resin according to manufacturer's instructions (Qiagen). The transcription reaction [40 mM Tris (pH 8); 4 mM each of UTP, CTP, GTP, and ATP at pH 7.0; 22 mM MgCl2; 2 mM spermidine; 10 mM DTT; 6 μg pyrophosphatase (Roche Applied Science); 60 μg/mL BstNI digested DNA template, approximately 0.2 mg/ml T7 RNA polymerase] was performed in 10 ml reaction volumes for overnight at 37° C. The tRNA was purified on 12% denaturing polyacrylamide gel containing 8 M urea and TBE buffer (90 mM Tris, 90 mM boric acid, 2 mM EDTA). UV shadowing illuminates the pure tRNA band, which is excised and extracted three times with 1M sodium acetate pH 5.3 at 4° C. The tRNA extractions were then ethanol precipitated, dissolved in RNase-free distilled water, pooled, and finally desalted using a Biospin 30 column (BioRad). The ratio of aminoacylated tRNA to total tRNA was determined to monitor reaction progress.
The tRNA was refolded by heating to 100° C. for 5 min and slow cooling to room temperature. At 65° C., MgC12, was added to a final concentration of 10 mM to aid folding. A His-tagged CCA adding enzyme was purified over column of Ni-NTA resin according to manufacturer's instructions (Qiagen). 16 μM folded tRNA in 50 mM Tris (pH 8.0), 20 mM MgCl2, 5 mM DTT and 50 μM NaPPi was incubated at room temperature for 1 hour with approximately 0.2 mg/ml CCA-adding enzyme and 1.6 μCi/μl of [α-32P]-labeled ATP (PerkinElmer). The sample was phenol/chloroform extracted and then passed over a Bio-spin 30 column (Bio-Rad) to remove excess ATP.
A 20 μl aminoacylation reaction contained the following components: 50 mM HEPES-KOH (pH 7.2), 25 mM KCl, 10 mM MgCl2, 5 mM DTT, 10 mM ATP, 25 μg/ml pyrophosphatase (Roche Applied Science), 2 mM amino acids. All plateau tRNA aminoacylation levels were determined at 37° C. according to the reactions conditions described above with 500 nM enzyme, 5 μM unlabeled tRNA plus 100 nM 32P-labeled tRNA. Time points were taken at 5 minutes, 20 minutes and 60 minutes by removing 2 μl aliquots from the reaction and immediately quenching the reaction into an ice-cold 3 μl quench solution [0.66 μg/μl nuclease P1 (Sigma) in 100 mM sodium citrate (pH 5.0)]. For each reaction, 2 μl of blank reaction mixture containing no enzymes was added to the quench solution as the start time point. The nuclease P1 mixture was then incubated at room temperature for 30 min and 1 μl aliquots were spotted on PEI-cellulose plates (Merck) and developed in running buffer containing 5% acetic acid and 100 mM ammonium acetate. Radioactive spots for AMP and AA-AMP (representing free tRNA and aminoacyl-tRNA, respectively) were separated and then visualized and quantified by phosphor imaging by a Molecular Dynamics Storm 860 phosphorimager (Amersham Biosciences). The ratio of aminoacylated tRNA to total tRNA was determined to monitor reaction progress.

For the next series, the system named is ELP(30TAG)-GFP. Put plainly: ELP expression and purification, yield of purified ELP(30TAG)-GFP. The class given is cell-based, E. coli. The method, then: Before batch expression, starter cultures (2 mL) of 2×YT media supplemented with 30 μg/mL kanamayacin and 20 μg/mL chloramphenicol were inoculated with transformed cells from a fresh agar plate or from stocks stored at −80° C., and incubated overnight at 34° C. while shaking at 250 rpm. Expression cultures (250 ml flasks containing 50 ml of 2×YT media, antibiotics, 0.2% arabinose and 1 mM of the nsAA) were inoculated with 0.5 ml of the starter culture and incubated at 34° C. for 4 h and then reporter protein expression was induced with 60 μg/mL anhydrotetracyclin.
Cells were harvested 24 h after inoculation by centrifugation at 4,000 g for 15 min at 4° C. The cell pellet was resuspended by vortex in ˜1.5 mL PBS buffer and stored at −80° C. or immediately purified. For purification, resuspended pellets were lysed by ultrasonic disruption (9 cycles of 10 s sonication separated by 40 s intervals). Poly(ethyleneimine) (0.2 mL of 10% solution) was added to each lysed suspension before centrifugation at 15,000 g for 3 min to separate cell debris from the soluble cell lysate.
All ELP constructs were purified by a modified Inverse Transition Cycling (ITC) protocol consisting of multiple “hot” and “cold” spins using sodium citrate to trigger the phase transition. Before purification, the soluble cell lysate was incubated for 1-2 min at ˜65° C. to denature native E. coli proteins. For “hot” spins, the ELP phase transition was triggered by adding sodium citrate to the cell lysate or the product of a previous cycle of ITC at a final concentration of ˜0.5 M. The solutions were then centrifuged at 14,000 g for 3 min and the pellets were resuspended in PBS, followed by a 3-5 min “cold” spin performed without addition of sodium citrate to remove denatured contaminant. Additional rounds of ITC were carried out as needed until sufficient purification was achieved.
Protein concentration was calculated by measuring the OD280 of purified protein stocks according to the following extinction coefficients for ELP(30TAG)-GFP.

B1: pAzFRS.1.t1: pAcFRS variant D158V, I159M, L162D, A167Y, R257G, SEQ ID NO: 11 (protein)
chain: MDEFEMIKRNTSEIISEEELREVLKKDEKSALIGFEPSGKIHLGHYLQIKKMIDLQNAGFDIIILLADLHAYLNQKGELDEIRKIGDYNKKVFEAMGLKAKYVYGSEFQLDKDYTLNVYRLALKTTLKRARRSMELIAREDENPKVAEVIYPIMQVNVMHYDGVDVYVGGMEQRKIHMLARELLPKKVVCIHNPVLTGLDGEGKMSSSKGNFIAVDDSPEEIRAKIKKAYCPAGVVEGNPIMMEIAKYFLEYPLTIKGPEKFGGDLTVNSYEELESLFKNKELHPMRLKNAVAEELIKILEPIRKRL
As for B1, in the series with tRNA (nsAA pAzF), the Km (as a rule, the substrate concentration at which the rate is half of its maximum) amounted to 24 ± 3 µM; the kcat is 0.49 ± 0.17 ×10^−3 s^−1; the Fold change turned out to be 3.29.

B2: pAcFRS.1.t1: pAcFRS variant A167D, R257G, SEQ ID NO: 5 (protein)
chain: MDEFEMIKRNTSEIISEEELREVLKKDEKSALIGFEPSGKIHLGHYLQIKKMIDLQNAGFDIIILLADLHAYLNQKGELDEIRKIGDYNKKVFEAMGLKAKYVYGSEFQLDKDYTLNVYRLALKTTLKRARRSMELIAREDENPKVAEVIYPIMQVNGCHYRGVDVDVGGMEQRKIHMLARELLPKKVVCIHNPVLTGLDGEGKMSSSKGNFIAVDDSPEEIRAKIKKAYCPAGVVEGNPIMEIAKYFLEYPLTIKGPEKFGGDLTVNSYEELESLFKNKELHPMRLKNAVAEELIKILEPIRKRL
For the molecule B2, the “Yield of purified ELP(30TAG)-GFP” value in the series with ELP(30TAG)-GFP (nsAA pAcF, GRO) is 52.6 ± 6.3 mg/L. In addition, in the series with tRNA (nsAA pAcF), the Michaelis constant (Km) was 16 ± 4 µM, the kcat is 1.12 ± 0.14 ×10^−3 s^−1 and the Fold change was found to be 9.58. Moreover, in the series with tRNA (nsAA pAzF), the Michaelis constant (Km) turned out to be 16 ± 1 µM, the kcat is 0.63 ± 0.12 ×10^−3 s^−1 and the Fold change is 6.33.

B3: pAcFRS: progenitor M. jannaschii based p-acetyl-L-phenylalanine AARS, SEQ ID NO:1 (Young, et al., 2010) (protein, listed as Methanocaldococcus jannaschii)
chain: B2 chain with D167A, G257R
As to B3, the “Yield of purified ELP(30TAG)-GFP” value with ELP(30TAG)-GFP (nsAA pAcF, GRO) is 10.5 ± 5.5 mg/L. Also, the “Yield of purified ELP(30TAG)-GFP” value in the series with ELP(30TAG)-GFP (nsAA pAcF, Non-recoded E. coli) was 3.04 ± 1.4 mg/L. In the series with tRNA (nsAA pAcF), the Michaelis-Menten constant (Km) is 34 ± 6 µM, the kcat is given as 0.25 ± 0.04 ×10^−3 s^−1 and the Fold change came to 1. Moreover, in the series with tRNA (nsAA pAzF), the Km was 34 ± 7 µM, the kcat is recorded as 0.23 ± 0.03 ×10^−3 s^−1 and the Fold change is on record as 1.

B4: pAzFRS.2.t1: pAcFRS variant E107T, F108Y, Q109M, R257G, SEQ ID NO: 14 (protein)
chain: B2 chain with E107T, F108Y, Q109M, D167A
With B4, in the series on ELP(30TAG)-GFP (nsAA 4ClF, GRO), the “Yield of purified ELP(30TAG)-GFP” value worked out at 48.2 ± 11.2 mg/L. In the series with ELP(30TAG)-GFP (nsAA pAcF, GRO), the “Yield of purified ELP(30TAG)-GFP” value is given as 39.05 ± 3.4 mg/L. Besides, in the series with ELP(30TAG)-GFP (nsAA pAzF, GRO), the “Yield of purified ELP(30TAG)-GFP” value was 41.9 ± 6^ mg/L. In the series on tRNA (nsAA pAzF), the Michaelis-Menten constant (Km) was determined as 14 ± 3 µM, the kcat is listed as 0.71 ± 0.13 ×10^−3 s^−1 and the Fold change worked out at 8.17.

B5: pAcFRS.2.t1: pAcFRS variant L65V, A167D, R257G, SEQ ID NO: 8 (protein)
chain: B2 chain with L65V
Take B5: the “Yield of purified ELP(30TAG)-GFP” value with ELP(30TAG)-GFP (nsAA 4CF3F, GRO) was 53 ± 5.4 mg/L. In the series on ELP(30TAG)-GFP (nsAA BuY, GRO), the “Yield of purified ELP(30TAG)-GFP” value came out at 64.5 ± 9.7 mg/L. Moreover, the “decrease in tRNA charging for pAzF compared with pAcF” value with tRNA (in vitro biochemical analysis) amounted to 2.8 fold. Moreover, in the series on tRNA (nsAA pAcF), the Km turned out to be 18 ± 2 µM, the kcat is given as 0.54 ± 0.15 ×10^−3 s^−1 and the Fold change was 4.10. Also, in the series with tRNA (nsAA pAzF), the Km worked out at 24 ± 7 µM, the kcat was 0.22 ± 0.05 ×10^−3 s^−1 and the Fold change is reported as 1.47.
